Measurements as given in US20060275780, “Cross-linking reagents and uses thereof” (Beckman Coulter, Inc., published 2006).

B1: bFGF photoaptamer (ssDNA)
DNA: GCGAAGGCACACCGAGTTCATAGTATCCCA
modifications: BrdU at the five n positions (17, 18, 22, 25, 27), replacing T [n positions 17,18,21,24,26 = modified dU]

How the values were obtained:
[1] = molecular target: T1, FGFb (fibroblast growth factor-basic, bFGF, FGF2) (UniProt P09038 P09038:143-288); assay: printed aptamer array; stated to bind as tightly as the BrdU aptamer; cross-linking avidity lower (curve shifted right) after 1N NaOH 1% SDS
T1 sequence (P09038 143-288, one chain of several): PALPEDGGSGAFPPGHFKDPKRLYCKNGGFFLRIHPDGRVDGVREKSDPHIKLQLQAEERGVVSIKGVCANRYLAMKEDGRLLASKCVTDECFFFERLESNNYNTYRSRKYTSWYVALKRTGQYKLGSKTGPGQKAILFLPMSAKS
Method: FGFb bindings by bFGF photoaptamer and bFGF native aptamer (GCGAAGGCACACCGAGTTCATAGTATCCCA; SEQ ID NO:2) were compared. Referring to FIG. 3, * denotes PICUP-like cross-linking (the left two columns), while the remaining wells represent non-covalent ligand capture (the right two columns). Samples in plates 1* and 7 were treated with 1N NaOH, 1% SDS to remove the non-covalently bound ligand.
This hypothesis was tested by titrating increasing concentrations of FGFb against the two aptamers and plotting binding curves. Referring to FIG. 4, in the left panel, the two left hand side columns of each array were printed with bFGF photoaptamer, while the two right hand side columns were printed with bFGF native aptamer. The eighteen arrays in the left panel were cross-linked using a PICUP-like protocol, whereas the six arrays in the right panel represent non-covalent binding. All wells were treated with 1N NaOH, 1% SDS to strip the non-covalently bound ligand. The displacement of the bFGF native aptamer binding curve (diamonds) to the right of the bFGF photoaptamer curve (squares) confirmed that the cross-linking avidity of the bFGF native aptamer is lower than its BrdU-modified bFGF photoaptamer analog (FIG. 5).

[2] = molecular target: T1, FGFb (fibroblast growth factor-basic, …); assay: Ru(bpy)3 2+/APS visible-light cross-linking; urea gel and printed aptamer array with anti-FGF ELF detection; complex stable to 1N NaOH 1% SDS when cross-linked
Text: bFGF photoaptamer (GCG AAG GCA CAC CGA GXX CAX AGX AXC CCA, where X=BrdU; SEQ ID NO:1) was mixed with FGFb ligand overnight to achieve maximal aptamer-ligand binding. White light-mediated photolysis of tris-bipyridylruthenium (II) complex was employed to cross-link the aptamer to the ligand in the presence of APS. The solution was then boiled in the presence of urea-SDS to dissociate bound but uncross-linked ligand from the aptamer. The mixture was subsequently applied to a urea slab gel to separate free aptamer from the cross-linked aptamer-ligand complex by electrophoresis. SYBR Gold staining was used to determine the presence of the aptamer, while double-staining with silver stain was used to determine the presence of the ligand. Referring to FIG. 1, the test sample consisted of bFGF photoaptamer and fibroblast growth factor-basic (FGFb) ligand; the control sample consisted of only bFGF photoaptamer. The test and control samples were incubated overnight prior to PICUP (photo-induced cross-linking of unmodified proteins)-like cross-linking. The samples (12 ul/each) were run on a 6% TBE-urea gel. […] Both the test and control samples were subject to denaturing conditions (100° C. for 5 minutes in TBE-urea sample buffer) prior to electrophoresis.
In FIG. 2, FGFb ligand was applied to an array of aptamers and incubated for 48 hours to achieve maximal binding. […]

Binder	binding result [1]	binding result [2]
GCGAAGGCACACCGAGTTCATAGTATCCCA (ssDNA) [bFGF native aptamer]	binds	
B1		binds
